A word on the Kd: it is the free concentration of one partner at which half of the binding sites on the other are occupied at equilibrium, for simple one-to-one binding.

Experimental findings from patent US20250076311A1 (Chugai, published 2025) are described below.

Experiment in all cases: SPR Biacore, antibody captured, FcgR analyte
For orientation: Surface plasmon resonance follows binding to a sensor surface in real time, without labels.

Experiment [1] has as its target T1, cynomolgus monkey FcγRIIb extracellular domain with C-terminal His-tag (cynomolgus monkey).
T1 construct: also called cyno FcgRIIb; cynoFcγRIIb; not shown: His-tag added to C-terminus
T1 chain: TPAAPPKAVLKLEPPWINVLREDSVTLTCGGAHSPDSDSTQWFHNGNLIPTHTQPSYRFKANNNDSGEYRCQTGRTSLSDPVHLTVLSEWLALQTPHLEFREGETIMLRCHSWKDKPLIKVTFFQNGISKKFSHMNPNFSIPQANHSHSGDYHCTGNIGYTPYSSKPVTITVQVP

In experiment [2] the target is T2, human FcγRIIaR extracellular domain with C-terminal His-tag (human, UniProt P12318 34-217).
T2 construct: also called human FcgRIIaR; FcγRIIa (type R); not shown: His-tag added to C-terminus
T2 chain: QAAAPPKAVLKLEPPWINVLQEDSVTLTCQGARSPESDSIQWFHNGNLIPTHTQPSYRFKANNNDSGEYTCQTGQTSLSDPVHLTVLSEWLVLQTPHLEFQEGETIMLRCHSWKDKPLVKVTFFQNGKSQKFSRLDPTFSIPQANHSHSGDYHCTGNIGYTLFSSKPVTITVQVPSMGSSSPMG

Experiment [3] has as its target T3, cynomolgus monkey FcγRIIIaS extracellular domain with C-terminal His-tag (cynomolgus monkey, UniProt A3RFZ7 21-206 (rhesus entry)).
T3 construct: also called cyno FcgRIIIaS; cynoFcγRIIIaS; not shown: His-tag added to C-terminus

Experiment [4] addresses T4, cynomolgus monkey FcγRIIa3 extracellular domain with C-terminal His-tag (cynomolgus monkey).
T4 construct: also called cyno FcgRIIa3; cynoFcγRIIa3; not shown: His-tag added to C-terminus
T4 chain: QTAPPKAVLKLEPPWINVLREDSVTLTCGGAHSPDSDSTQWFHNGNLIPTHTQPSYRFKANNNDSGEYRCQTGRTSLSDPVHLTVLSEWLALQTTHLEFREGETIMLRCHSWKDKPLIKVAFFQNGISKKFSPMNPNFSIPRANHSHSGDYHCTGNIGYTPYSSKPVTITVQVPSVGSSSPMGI

Experiment [5] deals with T5, human FcγRIIb extracellular domain with C-terminal His-tag (human, UniProt P31994 43-217).
T5 construct: also called human FcgRIIb; not shown: His-tag added to C-terminus
T5 sequence: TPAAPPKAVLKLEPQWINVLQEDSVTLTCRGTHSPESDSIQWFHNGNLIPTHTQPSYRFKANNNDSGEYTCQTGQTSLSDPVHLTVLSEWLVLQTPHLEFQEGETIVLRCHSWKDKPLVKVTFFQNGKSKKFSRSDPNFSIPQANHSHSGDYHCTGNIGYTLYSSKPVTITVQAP

For experiment [6], the target named is T6, cynomolgus monkey FcγRIIa2 extracellular domain with C-terminal His-tag (cynomolgus monkey).
T6 construct: also called cyno FcgRIIa2; cynoFcγRIIa2; not shown: His-tag added to C-terminus
T6 chain: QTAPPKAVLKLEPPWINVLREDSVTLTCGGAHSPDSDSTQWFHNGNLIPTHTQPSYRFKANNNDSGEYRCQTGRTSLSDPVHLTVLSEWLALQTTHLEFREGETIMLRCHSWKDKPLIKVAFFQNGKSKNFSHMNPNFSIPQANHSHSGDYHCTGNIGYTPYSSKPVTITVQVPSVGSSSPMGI

T3 sequence (A3RFZ7 21-206): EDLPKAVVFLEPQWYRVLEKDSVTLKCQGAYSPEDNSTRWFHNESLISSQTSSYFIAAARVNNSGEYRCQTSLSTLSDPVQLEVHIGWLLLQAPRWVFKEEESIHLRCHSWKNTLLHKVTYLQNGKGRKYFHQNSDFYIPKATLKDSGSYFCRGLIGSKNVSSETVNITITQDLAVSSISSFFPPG

B1: M103205H795-MY052/M103202L889-SK1 (antibody, human IgG1, kappa, name in EU numbering)
heavy: QVTLKESGPVLVKPTETLTLTCTVSGIDLSHDDISWVRQAPGKGLEWVGIISYAGSTYYASWAKGRLTISKDTSKNQVVLTMTNMDPVDTATYYCARGVPAYSHGGDLWGQGTLVTVSSASTKGPSVFPLAPSSKSTSGGTAALGCLVKDYFPEPVTVSWNSGALTSGVHTFPAVLQSSGLYSLSSVVTVPSSSLGTQTYICNVNHKPSNTKVDKKVEPKSCDKTHTCPPCPAPELLNGPSVFLFPPKPKDTLMISRTPEVTCVVVDVSEEDPEVKFNWYVDGVEVHNAKTKPREEQYNSTYRVVSVLTVLHQDWLNGKEYKCKVSNKALPAPIEKTISKAKGQPREPQVYTLPPSREEMTKNQVSLTCLVKGFYPSDIAVEWESNGQPENNYKTTPMVLDSDGSFFLYSKLTVDKSRWQQGNVFSCSVMHEALHNHYTQKSLSLSP
light: DIVMTQSPATLSLSPGERATLSCTSSQSVYHANWLSWFQQKPGQPPKLLIYWASTLAYGVPSRFSGSGSGTDFTLTISSLQPEDAATYYCAGGYGGGRYAFGQGTKVEIKRTVAAPSVFIFPPSDEQLKSGTASVVCLLNNFYPREAKVQWKVDNALQSGNSQESVTEQDSKDSTYSLSSTLTLSKADYEKHKVYACEVTHQGLSSPVTKSFNRGEC
notes: substitutions in EU numbering, introduced into M103205H795-SG1
With B1, the “KD fold (SG1 = 1)” value in experiment [1] was found to be 3.5 fold; in experiment [2], 0.1 fold; in experiment [3] it was 0.24 fold. The Kd in experiment [3] was 1500 nM.

B2: M103205H795-MY175/M103202L889-SK1 (antibody, human IgG1, kappa, name in EU numbering)
heavy: QVTLKESGPVLVKPTETLTLTCTVSGIDLSHDDISWVRQAPGKGLEWVGIISYAGSTYYASWAKGRLTISKDTSKNQVVLTMTNMDPVDTATYYCARGVPAYSHGGDLWGQGTLVTVSSASTKGPSVFPLAPSSKSTSGGTAALGCLVKDYFPEPVTVSWNSGALTSGVHTFPAVLQSSGLYSLSSVVTVPSSSLGTQTYICNVNHKPSNTKVDKKVEPKSCDKTHTCPPCPAPELLNGPSVFLFPPKPKDTLMISRTPEVTCVVVDVSEEDPEVKFNWYVDGVEVHNAKTKPREEQYNSTYRVVSVLTVLHQDWLNGKEYKCKVSNKALPAPIEKTISKAKGQPREPQVYTLPPSREEMTKNQVSLTCLVKGFYPSDIAVEWESNGQPENNYKTTPKVLDSDGSFFLYSKLTVDKSRWQQGNVFSCSVMHEALHNHYTQKSLSLSP
light: DIVMTQSPATLSLSPGERATLSCTSSQSVYHANWLSWFQQKPGQPPKLLIYWASTLAYGVPSRFSGSGSGTDFTLTISSLQPEDAATYYCAGGYGGGRYAFGQGTKVEIKRTVAAPSVFIFPPSDEQLKSGTASVVCLLNNFYPREAKVQWKVDNALQSGNSQESVTEQDSKDSTYSLSSTLTLSKADYEKHKVYACEVTHQGLSSPVTKSFNRGEC
notes: EU numbering
In the case of B2, the “KD fold (SG1 = 1)” value in experiment [4] stood at 2.3 fold; in experiment [3], 0.14 fold. The Kd in experiment [2] amounted to 1500 nM; in experiment [3] it was 2600 nM.

B3: M103205H795-MY171/M103202L889-SK1 (antibody, human IgG1, kappa, name in EU numbering)
heavy: QVTLKESGPVLVKPTETLTLTCTVSGIDLSHDDISWVRQAPGKGLEWVGIISYAGSTYYASWAKGRLTISKDTSKNQVVLTMTNMDPVDTATYYCARGVPAYSHGGDLWGQGTLVTVSSASTKGPSVFPLAPSSKSTSGGTAALGCLVKDYFPEPVTVSWNSGALTSGVHTFPAVLQSSGLYSLSSVVTVPSSSLGTQTYICNVNHKPSNTKVDKKVEPKSCDKTHTCPPCPAPELLNGPSVFLFPPKPKDTLMISRTPEVTCVVVDVSEEDPEVKFNWYVDGVEVHNAKTKPREEQYNSTYRVVSVLTVLHQDWLNGKEYKCKVSNKALPAPIEKTISKAKGQPREPQVYTLPPSREEMTKNQVSLTCLVKGFYPSDIAVEWESNGQPENNYKTTPFVLDSDGSFFLYSKLTVDKSRWQQGNVFSCSVMHEALHNHYTQKSLSLSP
light: DIVMTQSPATLSLSPGERATLSCTSSQSVYHANWLSWFQQKPGQPPKLLIYWASTLAYGVPSRFSGSGSGTDFTLTISSLQPEDAATYYCAGGYGGGRYAFGQGTKVEIKRTVAAPSVFIFPPSDEQLKSGTASVVCLLNNFYPREAKVQWKVDNALQSGNSQESVTEQDSKDSTYSLSSTLTLSKADYEKHKVYACEVTHQGLSSPVTKSFNRGEC
notes: EU numbering
For the molecule B3, the Kd is 1200 nM in experiment [5]; 2300 nM in experiment [6]; 9200 nM in experiment [4]; 9800 nM in experiment [1]; 2300 nM in experiment [2]; 3300 nM in experiment [3]. For the same molecule, the “KD fold (SG1 = 1)” value in experiment [4] worked out at 1.5 fold; in experiment [1], 1.5 fold; in experiment [3] it was 0.11 fold.

B4: M103205H795-MY168/M103202L889-SK1 (antibody, human IgG1, kappa, name in EU numbering)
heavy: QVTLKESGPVLVKPTETLTLTCTVSGIDLSHDDISWVRQAPGKGLEWVGIISYAGSTYYASWAKGRLTISKDTSKNQVVLTMTNMDPVDTATYYCARGVPAYSHGGDLWGQGTLVTVSSASTKGPSVFPLAPSSKSTSGGTAALGCLVKDYFPEPVTVSWNSGALTSGVHTFPAVLQSSGLYSLSSVVTVPSSSLGTQTYICNVNHKPSNTKVDKKVEPKSCDKTHTCPPCPAPELLNGPSVFLFPPKPKDTLMISRTPEVTCVVVDVSEEDPEVKFNWYVDGVEVHNAKTKPREEQYNSTYRVVSVLTVLHQDWLNGKEYKCKVSNKALPAPIEKTISKAKGQPREPQVYTLPPSREEMTKNQVSLTCLVKGFYPSDIAVEWESNGQPENNYKTTPAVLDSDGSFFLYSKLTVDKSRWQQGNVFSCSVMHEALHNHYTQKSLSLSP
light: DIVMTQSPATLSLSPGERATLSCTSSQSVYHANWLSWFQQKPGQPPKLLIYWASTLAYGVPSRFSGSGSGTDFTLTISSLQPEDAATYYCAGGYGGGRYAFGQGTKVEIKRTVAAPSVFIFPPSDEQLKSGTASVVCLLNNFYPREAKVQWKVDNALQSGNSQESVTEQDSKDSTYSLSSTLTLSKADYEKHKVYACEVTHQGLSSPVTKSFNRGEC
notes: EU numbering
In the case of B4, the Kd in experiment [4] turned out to be 1000 nM; in experiment [1], 12 nM; in experiment [2], 2800 nM; in experiment [3], 4500 nM. For the same molecule, the “KD fold (SG1 = 1)” value in experiment [3] was 0.08 fold.

B5: M103205H795-MY434/M103202L889-SK1 (antibody, human IgG1, kappa, name in EU numbering)
heavy: QVTLKESGPVLVKPTETLTLTCTVSGIDLSHDDISWVRQAPGKGLEWVGIISYAGSTYYASWAKGRLTISKDTSKNQVVLTMTNMDPVDTATYYCARGVPAYSHGGDLWGQGTLVTVSSASTKGPSVFPLAPSSKSTSGGTAALGCLVKDYFPEPVTVSWNSGALTSGVHTFPAVLQSSGLYSLSSVVTVPSSSLGTQTYICNVNHKPSNTKVDKKVEPKSCDKTHTCPPCPAPELWNGPSVFLFPPKPKDTLMISRTPEVTCVVVDVSDEDPEVKFNWYVDGVEVHNAKTKPREEQYNSTYRVVSVLTVLHQDWLNGKEYKCKVSNKALPKPIEKTISKAKGQPREPQVYTLPPSREEMTKNQVSLTCLVKGFYPSDIAVEWESNGQPENNYKTTPPVLDSDGSFFLYSKLTVDKSRWQQGNVFSCSVMHEALHNHYTQKSLSLSP
light: DIVMTQSPATLSLSPGERATLSCTSSQSVYHANWLSWFQQKPGQPPKLLIYWASTLAYGVPSRFSGSGSGTDFTLTISSLQPEDAATYYCAGGYGGGRYAFGQGTKVEIKRTVAAPSVFIFPPSDEQLKSGTASVVCLLNNFYPREAKVQWKVDNALQSGNSQESVTEQDSKDSTYSLSSTLTLSKADYEKHKVYACEVTHQGLSSPVTKSFNRGEC
notes: as for B1
Consider B5, for which the “KD fold (SG1 = 1)” value in experiment [5] was 3.5 fold; in experiment [2], 0.8 fold; in experiment [3], 0.03 fold.
